Measured values reported in patent US20240199746A1 (published 2024).

T1: Ax1 protein, extracellular domain (human, UniProt P30530 26-451)
T1 construct: extracellular domain; also called Axl; Ark
T1 sequence (looked up): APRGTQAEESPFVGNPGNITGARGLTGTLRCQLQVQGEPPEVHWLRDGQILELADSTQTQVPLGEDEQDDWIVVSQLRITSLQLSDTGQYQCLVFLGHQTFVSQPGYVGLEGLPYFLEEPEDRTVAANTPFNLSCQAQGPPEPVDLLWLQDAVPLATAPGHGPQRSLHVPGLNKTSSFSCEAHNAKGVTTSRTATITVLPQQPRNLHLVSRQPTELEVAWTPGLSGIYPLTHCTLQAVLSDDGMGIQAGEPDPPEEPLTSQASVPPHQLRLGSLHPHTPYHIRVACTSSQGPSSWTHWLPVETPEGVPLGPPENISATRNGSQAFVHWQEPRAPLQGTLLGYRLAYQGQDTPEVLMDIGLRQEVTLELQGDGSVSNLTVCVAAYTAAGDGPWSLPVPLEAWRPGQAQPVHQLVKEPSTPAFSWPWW


Legend:
[1] = target: T1, Ax1 protein, extracellular domain; assay: ELISA, mutant diluted 1:9
Excerpt: (§1) The DNA encoding the wild-type antibody was evolved to generate a mutant antibody library using Comprehensive Positional Evolution (CPE), which each position in the template antibody is randomized one at a time. Each mutant antibody in the library has only one single point mutation. The mutant antibodies in the library were generated by simultaneously screening for selective binding affinity to Ax1 at pH 6.0 over pH 7.4 by ELISA. Two mutant antibody dilutions were used: 1:3 and 1:9 dilutions.

[2] = target: T1, Ax1 protein, extracellular domain; assay: ELISA, mutant diluted 1:3
Excerpt: as §1

Row | Binder | Affinity ELISA CPE mutant ratio (1:9, pH 6.0/7.4) [1] | Affinity ELISA CPE mutant ratio (1:3, pH 6.0/7.4) [2]
1 | HC-W110A (antibody, V domains shown) VH: EVQLVQSGAEVKKPGATVKISCKVSGYSFTGHTMNWIRQPPGKGLEWIGLIKPSNGGTSYNQKFKGRVTISADKSISTAYLQWSSLKASDTAMYYCAHGHYESYFAMDYAGQGTLVTVSS VL: DIQMTQSPSSLSASVGDRVTITCKASQDVSSAVAWYQQKPGQAPRLLIYWASTRHTGVPSRFSGSGSGTEFTLTISSLQPDDFATYYCQEHFSTPLTFGQGTKVEIK | 1.2 | 7.31
2 | HC-E102L (antibody, V domains shown, CPE single point mutant) VH: EVQLVQSGAEVKKPGATVKISCKVSGYSFTGHTMNWIRQPPGKGLEWIGLIKPSNGGTSYNQKFKGRVTISADKSISTAYLQWSSLKASDTAMYYCAHGHYLSYFAMDYWGQGTLVTVSS VL: DIQMTQSPSSLSASVGDRVTITCKASQDVSSAVAWYQQKPGQAPRLLIYWASTRHTGVPSRFSGSGSGTEFTLTISSLQPDDFATYYCQEHFSTPLTFGQGTKVEIK | 2.7 | 3.27
3 | HC-B102G (antibody, V domains shown, CPE single point mutant; printed B102, read as E102 (other rows print HC-E102x)) VH: EVQLVQSGAEVKKPGATVKISCKVSGYSFTGHTMNWIRQPPGKGLEWIGLIKPSNGGTSYNQKFKGRVTISADKSISTAYLQWSSLKASDTAMYYCAHGHYGSYFAMDYWGQGTLVTVSS VL: DIQMTQSPSSLSASVGDRVTITCKASQDVSSAVAWYQQKPGQAPRLLIYWASTRHTGVPSRFSGSGSGTEFTLTISSLQPDDFATYYCQEHFSTPLTFGQGTKVEIK | 2.68 | 1.8
4 | HC-A106G (antibody, V domains shown, CPE single point mutant) VH: EVQLVQSGAEVKKPGATVKISCKVSGYSFTGHTMNWIRQPPGKGLEWIGLIKPSNGGTSYNQKFKGRVTISADKSISTAYLQWSSLKASDTAMYYCAHGHYESYFGMDYWGQGTLVTVSS VL: DIQMTQSPSSLSASVGDRVTITCKASQDVSSAVAWYQQKPGQAPRLLIYWASTRHTGVPSRFSGSGSGTEFTLTISSLQPDDFATYYCQEHFSTPLTFGQGTKVEIK | 2.2 | 1.52
5 | HC-B102F (antibody, V domains shown, CPE single point mutant; printed B102, read as E102 (other rows print HC-E102x)) VH: EVQLVQSGAEVKKPGATVKISCKVSGYSFTGHTMNWIRQPPGKGLEWIGLIKPSNGGTSYNQKFKGRVTISADKSISTAYLQWSSLKASDTAMYYCAHGHYFSYFAMDYWGQGTLVTVSS VL: DIQMTQSPSSLSASVGDRVTITCKASQDVSSAVAWYQQKPGQAPRLLIYWASTRHTGVPSRFSGSGSGTEFTLTISSLQPDDFATYYCQEHFSTPLTFGQGTKVEIK | 1.36 | 1.88
6 | HC-B102H (antibody, V domains shown, CPE single point mutant; printed B102, read as E102 (other rows print HC-E102x)) VH: EVQLVQSGAEVKKPGATVKISCKVSGYSFTGHTMNWIRQPPGKGLEWIGLIKPSNGGTSYNQKFKGRVTISADKSISTAYLQWSSLKASDTAMYYCAHGHYHSYFAMDYWGQGTLVTVSS VL: DIQMTQSPSSLSASVGDRVTITCKASQDVSSAVAWYQQKPGQAPRLLIYWASTRHTGVPSRFSGSGSGTEFTLTISSLQPDDFATYYCQEHFSTPLTFGQGTKVEIK | 2.31 | 2.08
7 | HC-A106L (antibody, V domains shown, CPE single point mutant) VH: EVQLVQSGAEVKKPGATVKISCKVSGYSFTGHTMNWIRQPPGKGLEWIGLIKPSNGGTSYNQKFKGRVTISADKSISTAYLQWSSLKASDTAMYYCAHGHYESYFLMDYWGQGTLVTVSS VL: DIQMTQSPSSLSASVGDRVTITCKASQDVSSAVAWYQQKPGQAPRLLIYWASTRHTGVPSRFSGSGSGTEFTLTISSLQPDDFATYYCQEHFSTPLTFGQGTKVEIK | 1.61 | 21.5
8 | HC-A106D (antibody, V domains shown, CPE single point mutant) VH: EVQLVQSGAEVKKPGATVKISCKVSGYSFTGHTMNWIRQPPGKGLEWIGLIKPSNGGTSYNQKFKGRVTISADKSISTAYLQWSSLKASDTAMYYCAHGHYESYFDMDYWGQGTLVTVSS VL: DIQMTQSPSSLSASVGDRVTITCKASQDVSSAVAWYQQKPGQAPRLLIYWASTRHTGVPSRFSGSGSGTEFTLTISSLQPDDFATYYCQEHFSTPLTFGQGTKVEIK | 2.51 | 3.39

Next, values leading:

Row | Affinity ELISA CPE mutant ratio (1:9, pH 6.0/7.4) [1] | Affinity ELISA CPE mutant ratio (1:3, pH 6.0/7.4) [2] | Binder
9 | 0.932 | 7.99 | HC-W110H (antibody, V domains shown) VH: EVQLVQSGAEVKKPGATVKISCKVSGYSFTGHTMNWIRQPPGKGLEWIGLIKPSNGGTSYNQKFKGRVTISADKSISTAYLQWSSLKASDTAMYYCAHGHYESYFAMDYHGQGTLVTVSS VL: DIQMTQSPSSLSASVGDRVTITCKASQDVSSAVAWYQQKPGQAPRLLIYWASTRHTGVPSRFSGSGSGTEFTLTISSLQPDDFATYYCQEHFSTPLTFGQGTKVEIK
10 | 2.15 | 6.49 | HC-W110P (antibody, V domains shown) VH: EVQLVQSGAEVKKPGATVKISCKVSGYSFTGHTMNWIRQPPGKGLEWIGLIKPSNGGTSYNQKFKGRVTISADKSISTAYLQWSSLKASDTAMYYCAHGHYESYFAMDYPGQGTLVTVSS VL: DIQMTQSPSSLSASVGDRVTITCKASQDVSSAVAWYQQKPGQAPRLLIYWASTRHTGVPSRFSGSGSGTEFTLTISSLQPDDFATYYCQEHFSTPLTFGQGTKVEIK
11 | 0.924 | 8.22 | HC-W110L (antibody, V domains shown) VH: EVQLVQSGAEVKKPGATVKISCKVSGYSFTGHTMNWIRQPPGKGLEWIGLIKPSNGGTSYNQKFKGRVTISADKSISTAYLQWSSLKASDTAMYYCAHGHYESYFAMDYLGQGTLVTVSS VL: DIQMTQSPSSLSASVGDRVTITCKASQDVSSAVAWYQQKPGQAPRLLIYWASTRHTGVPSRFSGSGSGTEFTLTISSLQPDDFATYYCQEHFSTPLTFGQGTKVEIK
12 | 1.06 | 5.99 | HC-W110R (antibody, V domains shown) VH: EVQLVQSGAEVKKPGATVKISCKVSGYSFTGHTMNWIRQPPGKGLEWIGLIKPSNGGTSYNQKFKGRVTISADKSISTAYLQWSSLKASDTAMYYCAHGHYESYFAMDYRGQGTLVTVSS VL: DIQMTQSPSSLSASVGDRVTITCKASQDVSSAVAWYQQKPGQAPRLLIYWASTRHTGVPSRFSGSGSGTEFTLTISSLQPDDFATYYCQEHFSTPLTFGQGTKVEIK
13 | 1.37 | 7.47 | HC-W110T (antibody, V domains shown) VH: EVQLVQSGAEVKKPGATVKISCKVSGYSFTGHTMNWIRQPPGKGLEWIGLIKPSNGGTSYNQKFKGRVTISADKSISTAYLQWSSLKASDTAMYYCAHGHYESYFAMDYTGQGTLVTVSS VL: DIQMTQSPSSLSASVGDRVTITCKASQDVSSAVAWYQQKPGQAPRLLIYWASTRHTGVPSRFSGSGSGTEFTLTISSLQPDDFATYYCQEHFSTPLTFGQGTKVEIK
14 | 0.8 | 4.3 | HC-W110N (antibody, V domains shown) VH: EVQLVQSGAEVKKPGATVKISCKVSGYSFTGHTMNWIRQPPGKGLEWIGLIKPSNGGTSYNQKFKGRVTISADKSISTAYLQWSSLKASDTAMYYCAHGHYESYFAMDYNGQGTLVTVSS VL: DIQMTQSPSSLSASVGDRVTITCKASQDVSSAVAWYQQKPGQAPRLLIYWASTRHTGVPSRFSGSGSGTEFTLTISSLQPDDFATYYCQEHFSTPLTFGQGTKVEIK
15 | 2.85 | 2.67 | HC-B102D (antibody, V domains shown, CPE single point mutant; printed B102, read as E102 (other rows print HC-E102x)) VH: EVQLVQSGAEVKKPGATVKISCKVSGYSFTGHTMNWIRQPPGKGLEWIGLIKPSNGGTSYNQKFKGRVTISADKSISTAYLQWSSLKASDTAMYYCAHGHYDSYFAMDYWGQGTLVTVSS VL: DIQMTQSPSSLSASVGDRVTITCKASQDVSSAVAWYQQKPGQAPRLLIYWASTRHTGVPSRFSGSGSGTEFTLTISSLQPDDFATYYCQEHFSTPLTFGQGTKVEIK
16 | 1.69 | 1.53 | HC-B102A (antibody, V domains shown, CPE single point mutant; printed B102, read as E102 (other rows print HC-E102x)) VH: EVQLVQSGAEVKKPGATVKISCKVSGYSFTGHTMNWIRQPPGKGLEWIGLIKPSNGGTSYNQKFKGRVTISADKSISTAYLQWSSLKASDTAMYYCAHGHYASYFAMDYWGQGTLVTVSS VL: DIQMTQSPSSLSASVGDRVTITCKASQDVSSAVAWYQQKPGQAPRLLIYWASTRHTGVPSRFSGSGSGTEFTLTISSLQPDDFATYYCQEHFSTPLTFGQGTKVEIK
